Experimental data as given in publication PMC9972567.

Biological target: Ep300 (UniProt B2RWS6)
Test: anti-V5 IP, Ep300 immunoblot
Conditions: reference: wild type; sites S656

## PIMT/TGS1 (human PIMT-V5) (from UniProt Q96RS0) S656A
  binding against the reference: weaker
